Measured values from PMC2749878 (Developmental cell, 2009).
Each block holds one binder with its values, some of them ahead of it.

Experiments:
[1] = target: T1, MBP-VPS20 α1 - α4 (residues 1-145) (human, UniProt Q96FZ7 1-145); assay: SPR
T1 sequence (looked up): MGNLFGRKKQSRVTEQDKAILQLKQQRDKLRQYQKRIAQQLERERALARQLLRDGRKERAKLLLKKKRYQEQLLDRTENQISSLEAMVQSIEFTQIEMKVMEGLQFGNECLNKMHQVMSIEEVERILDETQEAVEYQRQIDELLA

crystal structure = target: the molecule itself; assay: crystal structure

Kd [1]: 2500 nM
B1: VPS25c, C-terminal winged helix (WH2) domain of human VPS25 (residues 102-176) (domain or fragment, UniProt Q9BRG1 102-176, looked up)
chain: RRPEEWGKLIYQWVSRSGQNNSVFTLYELTNGEDTEDEEFHGLDEATLLRALQALQQEHKAEIITVSDGRGVKFF

Binder: SRVTEQDKAILQLKQQRDKLRQYQKRIAQQLERERALA (domain or fragment, human, UniProt Q96FZ7 11-48, looked up) [VPS20 α1 (residues 11-48)]
binding result (crystal structure): binds
